The text below walks through data of article PMC6823927 (Bioconjugate chemistry, 2018).

This assay has as its target extracellular domain of HER2 (Homo sapiens, UniProt P04626). Briefly: SPR. (In general: Surface plasmon resonance follows binding to a sensor surface in real time, without labels.)

B1: parental Fab (meditope-enabled trastuzumab Fab, Ala175) (Fab, V domains shown)
VH: not shown
VL: DIQMTQSPILLSASVGDRVTITCRASQDVNTAVAWYQQRTNGSPRLLIYSASFLYSGVPSRFSGSRSGTDFTLTISSLQPEDEADYYCQQHYTTPPTFGAGTKVEIK
As to B1, the binding result is given as “binds”.

B2: 175Cys-Fab (meditope-enabled trastuzumab Fab with Ala175 of the heavy chain changed to cysteine) (Fab, V domains shown)
VH: not shown
VL: B1 VL
Consider B2, for which the binding result is “binds”.
